From US20140271603A1

Biological target: C3 convertase of the alternative pathway (C3bBb) formed on C3b-coated wells (UniProt P01024)
Assay: cell-based or functional assay

C3 convertase of the alternative pathway (C3bBb) formed on C3b-coated wells, sequence (P01024 749-1663 limits assumed, chain 1 of 3): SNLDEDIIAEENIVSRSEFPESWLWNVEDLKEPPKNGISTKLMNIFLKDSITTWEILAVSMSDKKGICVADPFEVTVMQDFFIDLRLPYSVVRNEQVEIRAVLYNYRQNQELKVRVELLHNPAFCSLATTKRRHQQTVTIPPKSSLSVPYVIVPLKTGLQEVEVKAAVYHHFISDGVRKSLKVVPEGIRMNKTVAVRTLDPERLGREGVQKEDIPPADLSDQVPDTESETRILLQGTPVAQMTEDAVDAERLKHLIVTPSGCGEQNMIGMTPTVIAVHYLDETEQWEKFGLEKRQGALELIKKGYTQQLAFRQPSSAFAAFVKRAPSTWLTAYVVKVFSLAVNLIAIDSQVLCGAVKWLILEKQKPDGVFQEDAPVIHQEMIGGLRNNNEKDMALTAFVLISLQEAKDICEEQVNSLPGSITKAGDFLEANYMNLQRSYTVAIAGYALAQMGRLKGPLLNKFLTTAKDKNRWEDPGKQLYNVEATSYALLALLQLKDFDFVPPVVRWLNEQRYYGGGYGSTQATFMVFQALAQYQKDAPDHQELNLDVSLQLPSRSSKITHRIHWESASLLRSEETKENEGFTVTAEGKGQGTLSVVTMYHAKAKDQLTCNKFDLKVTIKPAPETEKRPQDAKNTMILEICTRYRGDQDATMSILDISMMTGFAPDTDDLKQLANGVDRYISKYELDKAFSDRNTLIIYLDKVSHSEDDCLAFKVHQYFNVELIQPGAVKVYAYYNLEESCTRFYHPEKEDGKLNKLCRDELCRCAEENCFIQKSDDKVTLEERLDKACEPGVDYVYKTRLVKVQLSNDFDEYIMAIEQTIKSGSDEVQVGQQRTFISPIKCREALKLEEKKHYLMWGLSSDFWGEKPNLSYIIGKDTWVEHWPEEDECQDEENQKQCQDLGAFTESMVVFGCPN
C3 convertase of the alternative pathway (C3bBb) formed on C3b-coated wells, sequence (P01024 23-667 limits assumed, chain 2 of 3): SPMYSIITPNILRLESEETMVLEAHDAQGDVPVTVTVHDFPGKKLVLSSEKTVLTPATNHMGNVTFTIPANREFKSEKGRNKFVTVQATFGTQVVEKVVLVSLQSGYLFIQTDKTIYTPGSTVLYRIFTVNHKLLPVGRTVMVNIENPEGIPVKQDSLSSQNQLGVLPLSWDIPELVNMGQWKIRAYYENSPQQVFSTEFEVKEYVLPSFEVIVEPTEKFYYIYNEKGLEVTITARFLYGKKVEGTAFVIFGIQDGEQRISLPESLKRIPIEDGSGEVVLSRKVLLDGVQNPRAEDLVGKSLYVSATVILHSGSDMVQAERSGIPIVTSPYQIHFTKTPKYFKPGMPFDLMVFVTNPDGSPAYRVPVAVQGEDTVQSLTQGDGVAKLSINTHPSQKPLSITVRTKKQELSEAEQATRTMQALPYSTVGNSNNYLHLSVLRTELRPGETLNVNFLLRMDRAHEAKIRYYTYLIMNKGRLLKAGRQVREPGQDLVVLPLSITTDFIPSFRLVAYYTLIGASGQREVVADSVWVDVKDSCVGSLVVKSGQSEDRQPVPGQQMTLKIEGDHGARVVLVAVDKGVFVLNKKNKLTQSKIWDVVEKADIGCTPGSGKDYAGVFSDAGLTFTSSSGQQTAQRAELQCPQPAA
C3 convertase of the alternative pathway (C3bBb) formed on C3b-coated wells, sequence (P00751 260-764 limits assumed, chain 3 of 3, further chain): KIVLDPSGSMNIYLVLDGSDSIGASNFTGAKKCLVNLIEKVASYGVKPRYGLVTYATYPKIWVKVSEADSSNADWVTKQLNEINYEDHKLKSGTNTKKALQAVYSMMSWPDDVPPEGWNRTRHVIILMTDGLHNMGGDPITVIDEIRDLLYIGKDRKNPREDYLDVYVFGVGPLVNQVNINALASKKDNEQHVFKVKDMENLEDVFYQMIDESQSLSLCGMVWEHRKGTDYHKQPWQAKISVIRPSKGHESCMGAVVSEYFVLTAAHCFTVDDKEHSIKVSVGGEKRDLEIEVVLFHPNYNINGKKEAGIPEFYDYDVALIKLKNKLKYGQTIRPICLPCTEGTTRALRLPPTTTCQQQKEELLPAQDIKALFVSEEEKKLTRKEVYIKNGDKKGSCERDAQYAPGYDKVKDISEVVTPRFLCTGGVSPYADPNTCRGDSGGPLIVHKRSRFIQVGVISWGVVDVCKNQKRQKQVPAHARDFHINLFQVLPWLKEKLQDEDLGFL

factor H of the pool plasma (ECQ 1) (from UniProt P08603 19-1231)
mean IC50 (printed '1050'), acceleration of the dissociation of C3 convertase, pool plasma: 0.058 µg/mL

Human Factor H Calibrator NL (The Binding Site, Ref: RP030) (from UniProt P08603 19-1231)
IC50, acceleration of the dissociation of C3 convertase (sample: FH plasma calibrator (The binding site)): 0.0681 µg/mL

purified human plasma factor H (batch LFB) (from UniProt P08603 19-1231)
IC50, acceleration of the dissociation of C3 convertase (sample: Formulated plasma FH, purified protein): 0.0179 µg/mL
IC50, acceleration of the dissociation of C3 convertase (sample: Formulated purified FH plasma): 0.0546 µg/mL
IC50, acceleration of the dissociation of C3 convertase (sample: Plasma FH PBS 1X): 0.0152 µg/mL
IC50, acceleration of the dissociation of C3 convertase (sample: Purified FH plasma PBS 1X): 0.0438 µg/mL
